“Also recorded” adds a separate entry of the source. Read-outs that look alike come from different tables or passages of the source.
Assays:
EGFR-ECD = EGFR-ECD (Homo sapiens, UniProt P00533); assay: Peptide in vitro binding assay with EGFR-ECD; conditions: in vitro binding assay of peptides P1-P10
Experimental: The purified full-length EGFR and EGFR-ECD was incubated with peptides containing sequences of different β-sheets of LTβ.
P1-P10 (SEQ ID NOs: 2-10) were tested for in vitro binding assay.

EGFR-ICD = EGFR-ICD (Homo sapiens, UniProt P00533); assay: In vitro binding assay, EGFR-ICD and LTβ interaction; conditions: LTβ β-sheet peptides
From the text: (§1) Since LTβ also induces EGFR-ICD phosphorylation in vitro, the applicant also investigated whether interception of EGFR-ICD and LTβ interaction could attenuate EGFR phosphorylation.

OECM1-Ctx^R cells [1] = assay: Clonogenecity assay, sensitization of OECM1-Ctx^R to cetuximab by peptides; format: cell-based, human; conditions: OECM1-Ctx^R / cetuximab-resistant cells
Experimental: The colonies were stained with crystal violet and counted if the size was great than 0.5 mm.
5,000 cells/well were seeded into 24-well plates. After 10 days of culturing, cells were washed by cold PBS twice and fixed by 4% paraformaldehyde for 1 hour. Cells then were stained by 0.005% crystal violet at 4° C. overnight. Colonies with a diameter larger than 0.5 mm were counted.

EGFR [2] = molecular target: T1, EGFR (Homo sapiens, UniProt P00533); assay: In vitro kinase assay of EGFR phosphorylation; format: biochemical; design: Since LTβ also induces EGFR-ICD phosphorylation in vitro
From the text: as §1

EGFR [3] = molecular target: T1, EGFR; assay: EGFR Y1068 phosphorylation in OECM1-Ctx^R treated with LTβ β-sheet peptides; format: cell-based; design: examined the effect of treating the peptides containing different β-sheets of LTβ on OECM1-Ctx^R; endogenous in cells; host or cells: OECM1-CtxR (cetuximab-resistant subline of OECM1); parental OECM1 for comparison
EGF-EGFR binding = molecular target: T2, EGF-EGFR binding (Homo sapiens, UniProt P00533); assay: EGF binding (flow cytometry); format: cell-based; conditions: OECM1-Ctx^R
T2 construct: examined the effect of treating the peptides containing different β-sheets of LTβ on OECM1-Ctx^R; endogenous in cells; host or cells: OECM1-CtxR (cetuximab-resistant subline of OECM1); parental OECM1 for comparison
Experimental: To analyze EGF binding, the cells were resuspended, incubated in a PE-conjugated anti-EGF antibody and evaluated using a Cytomics FC 500 instrument (Beckman-Coulter Inc., Fullerton, Calif.). The EGF-bound populations were defined compared with the IgG control group.

EGFR [4] = molecular target: T1, EGFR; assay: EGFR dimerization in OECM1-Ctx^R; format: cell-based; design: examined the effect of treating the peptides containing different β-sheets of LTβ on OECM1-Ctx^R; endogenous in cells; host or cells: OECM1-CtxR (cetuximab-resistant subline of OECM1); parental OECM1 for comparison
[5] = system: OECM1-Ctx^R or primary HNSCC cells; assay: Sensitization to cetuximab treatment by pathway inhibitors
Experimental: (§2) A total of 5×10^4 cells per well were seeded in a 96-well plate with triplicate and incubated for 24 h and then treated with different concentrations of indicated drugs. After 24 h treatment, the medium was removed. The MTT assay solution was added to each well, and the plate was incubated for 1 h at 37° C. After incubation, the solution was carefully discarded and dimethyl sulphoxide was added to dissolve newly formed mitochondrial MTT crystals. Finally, the plate was read using a microplate reader at 540 nm. Based on the data of cell viability assay, IC50-value calculation was performed by Sigmaplot 10.0 (Systat Software Inc., San Jose, Calif.).

[6] = system: colorectal tumors harboring a KRAS mutation; conditions: patients, FDA approval background; cited from earlier work
OECM1-Ctx^R cells [7] = assay: Growth inhibition of the cetuximab-resistant subline OECM1-Ctx^R; format: cell-based, human
Experimental: as §2

FaDu-Ctx^R cells = assay: Growth inhibition of the cetuximab-resistant subline FaDu-Ctx^R; format: cell-based, human
Experimental: A cetuximab-resistant HNSCC subline (named FaDu-Ctx^R) was established by in vivo selection. 1×10^5 wild-type FaDu cells per mouse were inoculated into the subcutaneous area of Balb/c nude mice (n=4). Two mice were treated with PBS and two were treated with cetuxmab once a week. […] After 10 weeks, the xenograpfted tumor was harvested for primary culture. […] The resistance of FaDu-Cxt^R was confirmed in vivo and in vitro. Subsequently, these two sublines were inoculated into nude mice again and treated with cetuximab.
After 24 h treatment, the medium was removed.

NF-κB = NF-κB luciferase reporter assay; format: cell-based, human; conditions: cetuximab-resistant cells
From the text: Activation of NF-κB in cetuximab-resistant cells was evident by an increased expression of nuclear p65 and p52 proteins and an enhanced NF-κB activity. Knockdown of LTB reduced nuclear p65 and p52, and suppression of LTB by either shRNA or a LTβ neutralizing antibody reduced NF-κB reporter activity.
The reporter constructs (PGL4.2-LTB-WT/PGL4.2-LTB-MUT/pGL4.23 promoter) were co-transfected into HEK-293T, FaDu or OECM1/OECM1-Ctx^R cells with different expression/control vector(s) as indicated in each experiment. A plasmid expressing the bacterial β-galactosidase gene (pCMV-βgal) was co-transfected in each experiment as an internal control for transfection efficiency. Cells were harvested after 48 hours of transfection and luciferase activities were assayed. The relative promoter activities were expressed as the fold-change in luciferase activity after normalization to β-galactosidase activity.

For “QDGLYYLYCLVGYR (beta-sheet of LTbeta) [P5]”, the “interaction with EGFR-ECD” value (EGFR-ECD) was “interact”, the “interaction in the in vitro binding assay (EGFR-ICD context)” value (shortened to “interaction … (EGFR-ICD context)”) (EGFR-ICD) was “interacted with LTβ” and the “sensitization to cetuximab treatment by peptide” value (OECM1-Ctx^R cells [1]; listed as 5th β-sheet) was “capable for sensitizing; also recorded: sensitized”. The “EGFR phosphorylation, in vitro kinase assay” value (EGFR [2]) was “suppresses EGFR phosphorylation most significantly” and the “EGFR Y1068 phosphorylation” value (EGFR [3]) was “suppressed”.
With ERVYVNISH (beta-sheet of LTbeta) [P9] the “interaction with EGFR-ECD” value (EGFR-ECD) was “interact”, the “interaction … (EGFR-ICD context)” value (EGFR-ICD) was “interacted with LTβ” and the EGF-EGFR binding (EGF-EGFR binding) was “reduced”. For the same compound, the “sensitization to cetuximab treatment by peptide” value (OECM1-Ctx^R cells [1]; listed as 9th β-sheet) was “capable for sensitizing; also recorded: sensitized”, the “EGFR phosphorylation, in vitro kinase assay” value (EGFR [2]) was “suppresses EGFR phosphorylation most significantly” and the “EGFR Y1068 phosphorylation” value (EGFR [3]; listed as 9th β-sheet) was “suppressed; also recorded: more prominent effect”. For the same compound, the EGFR dimerization (EGFR [4]) was “inhibits”.
With `CC(C)C[C@H](NC(=O)[C@H](Cc1ccccc1)NC(=O)c1cnccn1)B(O)O` [bortezomib] the “sensitization to cetuximab treatment by inhibition of NF-κB activity” value [5] was “sensitized”.
In the case of panitumumab, the “effect in colorectal tumors harboring a KRAS mutation” value [6] is given as “little or no effect”.
For “WYTSVGFGGLVQLR (beta-sheet of LTbeta) [P8]”, the “interaction with EGFR-ECD” value (EGFR-ECD) was “interact” and the “interaction … (EGFR-ICD context)” value (EGFR-ICD) was “interacted with LTβ”.
For “CCGGCGAGAGGGTGTACGTCAACATCTCGAGATGTTGACGTACACCCTCTCGTTTTT G (CCGGCGAGAGGGTGTACGTCAACATCTCGAGATGTTGACGTACACCCTCTCGTTTTTG; expressed or natural sequence) [shRNA]”, the “cetuximab resistance after knockdown of LTβ” value (OECM1-Ctx^R cells [7]) was “reverses cetuximab resistance”, the “cetuximab resistance after knockdown of LTβ” value (FaDu-Ctx^R cells) was “reverses cetuximab resistance” and the NF-κB reporter activity (NF-κB) was “reduced”.
